Results from patent US20070282095.

Legend:
[1] = molecular target: blood coagulation factor 13 (Fibrogammin P) (UniProt P00488)
fibrinogen = fibrinogen (UniProt P02671)
fibrinogen, sequence (P02671 20-629, chain 1 of 3): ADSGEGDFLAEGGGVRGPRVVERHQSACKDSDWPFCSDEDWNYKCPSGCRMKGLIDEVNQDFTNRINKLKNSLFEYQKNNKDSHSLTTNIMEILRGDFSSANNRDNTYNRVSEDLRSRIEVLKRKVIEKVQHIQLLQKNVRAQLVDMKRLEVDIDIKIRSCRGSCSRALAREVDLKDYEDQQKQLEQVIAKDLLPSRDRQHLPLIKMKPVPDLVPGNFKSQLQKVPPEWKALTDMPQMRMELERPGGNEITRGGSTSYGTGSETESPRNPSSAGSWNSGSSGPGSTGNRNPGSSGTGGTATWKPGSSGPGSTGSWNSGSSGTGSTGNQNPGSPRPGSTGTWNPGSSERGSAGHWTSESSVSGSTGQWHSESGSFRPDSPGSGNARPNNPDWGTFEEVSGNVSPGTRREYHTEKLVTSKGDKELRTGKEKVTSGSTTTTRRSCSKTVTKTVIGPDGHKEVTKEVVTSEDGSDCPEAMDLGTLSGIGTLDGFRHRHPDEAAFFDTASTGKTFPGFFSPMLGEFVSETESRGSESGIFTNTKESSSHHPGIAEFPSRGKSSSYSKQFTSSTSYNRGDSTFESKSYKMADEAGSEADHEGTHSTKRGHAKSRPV
fibrinogen, sequence (chain, as listed by the source, chain 2 of 3): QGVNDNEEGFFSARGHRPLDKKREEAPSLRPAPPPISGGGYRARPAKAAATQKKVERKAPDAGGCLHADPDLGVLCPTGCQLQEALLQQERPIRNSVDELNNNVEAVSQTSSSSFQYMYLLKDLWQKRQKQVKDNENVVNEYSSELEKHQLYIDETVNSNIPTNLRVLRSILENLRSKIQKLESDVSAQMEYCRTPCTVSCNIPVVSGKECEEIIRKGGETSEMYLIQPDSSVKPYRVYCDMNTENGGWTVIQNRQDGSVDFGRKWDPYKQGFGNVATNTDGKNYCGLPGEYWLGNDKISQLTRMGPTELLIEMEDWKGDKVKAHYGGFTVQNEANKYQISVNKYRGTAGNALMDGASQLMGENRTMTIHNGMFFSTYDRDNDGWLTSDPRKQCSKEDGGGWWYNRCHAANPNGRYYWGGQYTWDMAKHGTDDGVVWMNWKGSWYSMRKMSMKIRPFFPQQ
fibrinogen, sequence (chain, as listed by the source, chain 3 of 3): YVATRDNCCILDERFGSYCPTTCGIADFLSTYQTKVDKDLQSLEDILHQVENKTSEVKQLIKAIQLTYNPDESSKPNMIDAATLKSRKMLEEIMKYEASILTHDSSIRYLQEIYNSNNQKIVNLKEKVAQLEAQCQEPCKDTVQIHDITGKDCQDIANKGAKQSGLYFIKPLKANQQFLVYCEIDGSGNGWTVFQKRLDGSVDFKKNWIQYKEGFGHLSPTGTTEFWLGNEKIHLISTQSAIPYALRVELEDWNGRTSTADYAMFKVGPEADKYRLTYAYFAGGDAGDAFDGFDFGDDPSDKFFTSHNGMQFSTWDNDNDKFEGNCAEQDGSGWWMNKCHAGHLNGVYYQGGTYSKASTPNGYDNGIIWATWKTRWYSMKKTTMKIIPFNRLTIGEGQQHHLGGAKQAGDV

blood coagulation factor 13 (Fibrogammin P), sequence (P00488 2-732, chain 1 of 2): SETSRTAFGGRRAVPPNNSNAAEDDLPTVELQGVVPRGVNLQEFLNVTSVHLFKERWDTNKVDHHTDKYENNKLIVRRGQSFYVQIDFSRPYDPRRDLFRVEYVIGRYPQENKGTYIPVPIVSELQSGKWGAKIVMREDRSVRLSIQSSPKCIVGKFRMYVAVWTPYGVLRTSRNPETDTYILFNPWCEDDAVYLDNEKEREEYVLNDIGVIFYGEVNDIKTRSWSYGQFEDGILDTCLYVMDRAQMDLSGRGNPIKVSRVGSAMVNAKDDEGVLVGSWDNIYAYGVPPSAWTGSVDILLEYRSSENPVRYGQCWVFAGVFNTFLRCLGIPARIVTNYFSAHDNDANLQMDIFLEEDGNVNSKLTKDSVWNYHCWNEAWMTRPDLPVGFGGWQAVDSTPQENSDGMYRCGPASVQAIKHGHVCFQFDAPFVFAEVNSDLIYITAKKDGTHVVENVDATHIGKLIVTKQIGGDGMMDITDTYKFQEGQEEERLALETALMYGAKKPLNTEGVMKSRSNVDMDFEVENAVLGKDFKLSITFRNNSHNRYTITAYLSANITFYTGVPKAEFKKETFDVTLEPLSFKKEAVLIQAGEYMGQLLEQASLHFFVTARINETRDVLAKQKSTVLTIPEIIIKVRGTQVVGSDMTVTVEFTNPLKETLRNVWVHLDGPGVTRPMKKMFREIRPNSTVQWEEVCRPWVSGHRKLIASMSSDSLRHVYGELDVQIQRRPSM
blood coagulation factor 13 (Fibrogammin P), sequence (chain, as listed by the source, chain 2 of 2): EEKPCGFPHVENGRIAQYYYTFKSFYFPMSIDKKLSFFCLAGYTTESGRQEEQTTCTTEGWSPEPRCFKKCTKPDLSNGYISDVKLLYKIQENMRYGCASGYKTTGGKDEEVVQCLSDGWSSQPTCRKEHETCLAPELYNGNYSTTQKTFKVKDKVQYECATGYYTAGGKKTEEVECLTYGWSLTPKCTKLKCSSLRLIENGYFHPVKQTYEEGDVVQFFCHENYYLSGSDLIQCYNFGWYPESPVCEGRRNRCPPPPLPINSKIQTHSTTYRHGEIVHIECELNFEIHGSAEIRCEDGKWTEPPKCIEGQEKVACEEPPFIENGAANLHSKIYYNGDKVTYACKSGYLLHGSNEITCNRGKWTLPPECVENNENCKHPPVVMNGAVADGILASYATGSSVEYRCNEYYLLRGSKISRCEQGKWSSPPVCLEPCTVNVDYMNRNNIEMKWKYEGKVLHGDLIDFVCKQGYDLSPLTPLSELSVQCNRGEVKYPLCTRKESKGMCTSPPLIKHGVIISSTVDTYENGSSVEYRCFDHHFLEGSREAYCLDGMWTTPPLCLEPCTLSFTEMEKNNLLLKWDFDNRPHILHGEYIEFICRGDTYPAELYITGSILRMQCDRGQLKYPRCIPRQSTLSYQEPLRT

Row | Substance | cleavage of FXIII A chain, SDS-PAGE (method B), 37°C [1] | clot formation from Fbgn (method C), 37°C 3 hours (fibrinogen) | cleavage of FXIII A chain, SDS-PAGE (method B), 37°C 3 hours [1]
1 | 203A205G thrombin (glycine at position 203 in B chain substituted by alanine, serine at position 205 substituted by glycine) | No band of an A chain-activated product of FXIII was observed in the sample (lane 6) which was obtained after 3-hour incubation | no clot formation was observed | –
2 | 205G43A thrombin (serine 205 to glycine, histidine 43 to alanine in B chain) | – | – | no band of an A chain-activated product of FXIII was observed
3 | 205T thrombin (serine at position 205 in B chain substituted by threonine) | – | – | A chains of almost all FXIII were activated in a similar manner as that of the wild-type thrombin, and bands of cleaved FXIII were observed
4 | 205A thrombin (serine at position 205 in B chain substituted by alanine) | Even 3 hours later, no A chain of activated FXIII was observed as shown in lane 8 | – | –
5 | 203A thrombin (glycine at position 203 in B chain substituted by alanine) | The A chain of FXIII was observed to provide a cleaved product 30 minutes later, and more than half of the A chain was cleaved after three hours | a clot was formed after three hours | –
6 | 203A205A99N thrombin (glycine 203 to alanine, serine 205 to alanine, aspartic acid 99 to asparagine in B chain) | – | – | no band of an A chain-activated product of FXIII was observed
7 | 203A205A thrombin (glycine 203 to alanine, serine 205 to alanine in B chain) | No band of A chain-activated product of FXIII was observed even in lane 6 which was obtained after 3 hour-incubation | – | –
8 | 205A99N thrombin (serine 205 to alanine, aspartic acid 99 to asparagine in B chain) | – | – | no band of an A chain-activated product of FXIII was observed
9 | 205A43S thrombin (serine 205 to alanine, histidine 43 to serine in B chain) | – | – | no band of A chain-activated product of FXIII was observed
